Results reported in PMC3470933 (Molecular Microbiology, 2012).

T1: T. brucei pyridoxal kinase (TbPdxK) (Trypanosoma brucei, UniProt O15927)
T1 sequence (O15927 1-300): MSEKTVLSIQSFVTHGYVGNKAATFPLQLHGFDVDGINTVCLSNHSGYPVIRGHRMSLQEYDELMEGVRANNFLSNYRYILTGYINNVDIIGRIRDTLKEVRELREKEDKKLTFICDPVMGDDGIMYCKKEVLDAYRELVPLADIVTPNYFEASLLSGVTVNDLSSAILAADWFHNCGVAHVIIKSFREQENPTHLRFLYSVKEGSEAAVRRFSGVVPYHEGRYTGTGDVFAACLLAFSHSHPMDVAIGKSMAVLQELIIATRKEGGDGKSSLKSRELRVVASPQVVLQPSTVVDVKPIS

B1: T. brucei pyridoxal kinase (TbPdxK) (Trypanosoma brucei) (protein)
chain: T1 sequence (O15927 1-300)

Assays:
[1] = target: T1, T. brucei pyridoxal kinase (TbPdxK); test: coupled PK/LDH assay; format: biochemical; conditions: read-out: Km^app
purified protein [2] = substrate: Cc1ncc(CO)c(C=O)c1O; test: purified protein; format: biochemical, Trypanosoma brucei; conditions: ATP, Mg2+
purified protein [3] = substrate: Cc1ncc(CO)c(CN)c1O; test: purified protein; format: biochemical, Trypanosoma brucei; conditions: ATP, Mg2+
purified protein [4] = substrate: Cc1ncc(CO)c(CO)c1O; test: purified protein; format: biochemical, Trypanosoma brucei; conditions: ATP, Mg2+

Row | Molecule | Km [1] [µM] | Km (purified protein [2]) [µM] | Km (purified protein [3]) [µM] | Km (purified protein [4]) [µM]
1 | COCc1c(CO)cnc(C)c1O [GT, ginkgotoxin] | 46.6 ± 10.2 |  |  | 
2 | B1 |  | 1.65 ± 0.14 | 59.4 ± 14.8 | 48.0 ± 12.7
